In patent publication US9029505B2, “Modified vasoactive intestinal peptides” (Phasebio Pharmaceuticals, Inc., priority 2009, dated 2015):
Values belong to the molecule of their own block, whether it stands above or below them. No end group written: not given here. ELP1‑120 = 120 ELP1 units (VPGXG) fused at the C-terminus

Columns and labels:
[1] = Domschke 1978, Burhol 1978; cited from earlier work
[2] = biological target: T1, human Vasoactive Intestinal Peptide Receptor 2 (VPAC2) (Homo sapiens, UniProt P41587); experiment: cell-based cAMP bioassay in CHO cells expressing VPAC2; details: for activity compared with native VIP protein for VPAC2 receptor (cAMP produced): CHO cells expressing VPAC2, 30 minute incubation, FIG. 8, PB1047 DPP-IV treated before addition
T1 construct: expressed in transfected cells; host or cells: Chinese Hamster Ovary (CHO) cells
T1 sequence (P41587 24-438): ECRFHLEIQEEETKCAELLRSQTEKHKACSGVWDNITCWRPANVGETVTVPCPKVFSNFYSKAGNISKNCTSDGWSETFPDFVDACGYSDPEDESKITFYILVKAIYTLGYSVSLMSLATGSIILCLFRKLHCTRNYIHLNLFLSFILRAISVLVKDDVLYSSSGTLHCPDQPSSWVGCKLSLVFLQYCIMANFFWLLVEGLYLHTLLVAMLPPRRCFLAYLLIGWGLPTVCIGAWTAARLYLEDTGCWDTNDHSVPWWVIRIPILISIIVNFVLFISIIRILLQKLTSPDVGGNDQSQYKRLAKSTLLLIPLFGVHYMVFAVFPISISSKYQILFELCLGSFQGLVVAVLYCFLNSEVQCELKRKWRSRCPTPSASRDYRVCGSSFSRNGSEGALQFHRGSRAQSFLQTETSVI
Text: (§1) To measure the in vitro biological activity and potency of VIP or VIP-ELP fusion proteins, a cell-based bioassay was used. The assay measures the increase in intracellular cyclic adenosine monophosphate (cAMP) concentration in response to treatment with VIP or VIP-ELP fusion proteins in Chinese Hamster Ovary (CHO) cells that have been engineered to express either the human Vasoactive Intestinal Peptide Receptor 2 (VPAC2) or the human Vasoactive Intestinal Peptide Receptor 1 (VPAC1). […] Since the amount of cAMP accumulation in cells after receptor-mediated ligand binding and activation is directly proportional to the amount of intact peptide or fusion protein present, the assay can be used to determine bioactivity and relative potency.
In this example, the activity of VIP-ELP fusion proteins PB1046 and PB1047 was tested. Construct PB1046 contains VIP with a Met at the N-terminus and construct PB1047 contains VIP with Ala-Ala at its N-terminus. Both constructs have ELP (1-120) at their C-terminus. In the first experiment, the activity of the constructs was tested using CHO cells expressing the VIP receptor VPAC2. After 30 minute incubations of various concentrations of the fusion proteins with the cell, the cells were lysed and the amount of cAMP produced was measured using a commercial kit. PB1047 was DPP-IV treated prior to the addition to the cells.
FIG. 13 illustrates the activity of PB1120 for the VPAC2 receptor. Like the results seen for the VPAC1 receptor, PB1120 show slightly less activity (˜1.5 fold less) than the native VIP peptide for VPAC2. However, in contrast to the results seen with VPAC1. PB1046 was equipotent for VPAC2 as compared to the native peptide.

[3] = biological target: T2, human Vasoactive Intestinal Peptide Receptor 1 (VPAC1) (Homo sapiens, UniProt P32241); experiment: cell-based cAMP bioassay in CHO cells expressing VPAC1; details: for activity compared with native VIP protein for VPAC1 receptor (cAMP produced): CHO cells expressing VPAC1, 30 minute incubation, FIG. 9, PB1047 DPP-IV treated before addition; for fold less active than the native VIP peptide on the VPAC1 receptor: FIG. 12
T2 construct: expressed in transfected cells; host or cells: Chinese Hamster Ovary (CHO) cells
T2 sequence (P32241 31-457): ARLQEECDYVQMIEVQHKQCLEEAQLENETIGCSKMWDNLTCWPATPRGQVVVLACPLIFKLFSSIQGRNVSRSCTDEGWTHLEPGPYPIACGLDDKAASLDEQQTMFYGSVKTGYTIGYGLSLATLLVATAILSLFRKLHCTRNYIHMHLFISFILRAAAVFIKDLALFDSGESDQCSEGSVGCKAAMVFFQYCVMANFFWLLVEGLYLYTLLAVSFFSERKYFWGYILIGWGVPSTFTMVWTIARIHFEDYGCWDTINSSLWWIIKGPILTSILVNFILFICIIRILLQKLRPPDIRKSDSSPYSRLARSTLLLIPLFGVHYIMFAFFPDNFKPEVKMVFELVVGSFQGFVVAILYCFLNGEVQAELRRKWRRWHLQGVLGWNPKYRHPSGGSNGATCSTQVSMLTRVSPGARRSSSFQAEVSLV
Text: as §1
The activity of PB1046 and PB1047 was also tested using CHO cells expressing the VIP receptor VPAC1. After 30 minute incubations of various concentrations of the fusion proteins with CHO cells, cells were lysed and the amount of cAMP produced was measured using a commercial kit. PB1047 was DPP-IV treated prior to the addition to the cells.
The activity of the PB1120 fusion peptide was tested in vitro. The activity was tested using an assay utilizing CHO cells expressing VIP receptor (VPAC1) as described above in Example 3.

[4] = test system: Spontaneously hypertensive rats; experiment: blood pressure effect in spontaneously hypertensive rats; assay type: in vivo, rat; details: 10 mg/kg subcutaneous
Procedure: The activity of the modified VIP-ELP fusion protein PB1047 was also tested in vivo. Specifically, effects of VIP-ELP fusion protein on blood pressure were tested. Spontaneously hypertensive rats were treated subcutaneous with PB1047 (10 mg/kg) or buffer control and their blood pressures were measured at several points after administration of the fusion protein. Five animals were used for each group and the graphs show the average and the standard deviation.

DPP IV = DPP IV (Homo sapiens, UniProt P27487); experiment: DPP IV treatment of the fusion protein; assay type: biochemical; details: removal of both AA and HS from the N-terminus
Text: Plasmid pPB1064 was therefore constructed, where the N-terminus was changed to MAAHG, SEQ ID NO: 45, instead of MAAHS, SEQ ID NO: 46, because HG is more resistant to DPP IV than HS.

[5] = pharmacokinetic profile in monkeys after single SC injection; assay type: in vivo, monkey; details: single SC 3 mg/kg, to day 4
Procedure: In addition to the biological potency assays described above, the pharmacokinetic profile of the VIP-ELP fusion protein PB1120 was also examined. Monkeys were given single subcutaneous (SC) injections (dosed at 3 mg/kg) of PB1120 and plasma drug concentrations were measured daily over the course of one week. Three animals were used and the graphs show the average and the standard deviation.

rats = experiment: effects on systolic, diastolic and mean arterial blood pressure in rats; assay type: in vivo, rat; details: 9 hrs post-injection
Procedure: To measure the effects of the modified VIP-ELP fusion protein PB1120 on systolic, diastolic, and mean arterial blood pressure, rats were given single, subcutaneous injections of 0.1 mg/kg, 1 mg/kg, or 5 mg/kg of PB1120 and evaluated over 3-hr intervals. FIGS. 15A, 15B, and 15C show the average change in systolic, diastolic, and mean arterial pressure, respectively.

Sequence of DPP IV (P27487 whole entry, species assumed, the tested form may be a part): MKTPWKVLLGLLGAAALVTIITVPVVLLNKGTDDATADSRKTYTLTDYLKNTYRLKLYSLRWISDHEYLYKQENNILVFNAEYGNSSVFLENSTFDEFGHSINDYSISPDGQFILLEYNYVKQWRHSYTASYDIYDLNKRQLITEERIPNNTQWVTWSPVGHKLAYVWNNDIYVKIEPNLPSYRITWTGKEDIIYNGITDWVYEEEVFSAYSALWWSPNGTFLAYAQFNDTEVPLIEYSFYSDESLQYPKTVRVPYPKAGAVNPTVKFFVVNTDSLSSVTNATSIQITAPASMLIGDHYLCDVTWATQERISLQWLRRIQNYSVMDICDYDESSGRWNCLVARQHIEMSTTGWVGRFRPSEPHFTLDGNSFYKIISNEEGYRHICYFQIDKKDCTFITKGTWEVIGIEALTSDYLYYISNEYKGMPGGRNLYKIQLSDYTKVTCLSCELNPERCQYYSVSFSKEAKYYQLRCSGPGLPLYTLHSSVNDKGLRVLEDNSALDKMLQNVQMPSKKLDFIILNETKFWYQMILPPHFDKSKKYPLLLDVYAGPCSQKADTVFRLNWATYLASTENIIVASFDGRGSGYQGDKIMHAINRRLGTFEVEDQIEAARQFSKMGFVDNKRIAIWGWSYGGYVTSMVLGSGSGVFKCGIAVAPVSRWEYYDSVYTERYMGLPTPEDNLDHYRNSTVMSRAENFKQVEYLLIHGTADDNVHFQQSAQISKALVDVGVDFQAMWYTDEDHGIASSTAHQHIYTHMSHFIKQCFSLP

Molecule: Vasoactive intestinal peptide [VIP]
half-life in blood [1]: less than 2 minutes

Molecule: PB1047: VIP-ELP fusion with tripeptide MAA encoded at N-terminus (Ala-Ala after Met removal), ELP1-120 at C-terminus (SEQ ID 18) (MAAHSDAVFTDNYTRLRKQMAVKKYLNSILN-{ELP1‑120}; also: recombinant fusion with ELP1-120 at C-terminus)
activity compared with native VIP protein for VPAC2 receptor (cAMP produced) [2]: less active | activity compared with native VIP protein for VPAC1 receptor (cAMP produced) [3]: about the same as it was in the test for VPAC2 receptor | duration of blood pressure reduction post administration ([4]; systolic and diastolic): at least 12 hours | diastolic blood pressure ([4]; vs buffer control, FIG. 10): significantly reduced | systolic blood pressure ([4]; vs buffer control, FIG. 10): significantly reduced | effect of DPP IV treatment on the peptide (DPP IV): inactivation of the peptide

Now from value to molecule, other results behind:

potency for VPAC2 compared to the native peptide ([2]; FIG. 13): equipotent | activity compared with native VIP protein for VPAC1 receptor (cAMP produced) [3]: much less active than native VIP protein | fold less active than the native VIP peptide on the VPAC1 receptor [3]: approximately 11 fold
Molecule: PB1046: VIP-ELP fusion protein with Met at the N-terminus and ELP1-120 at the C-terminus (SEQ ID NO. 17; FIG. 1 SEQ ID NO: 14) (MHSDAVFTDNYTRLRKQMAVKKYLNSILN-{ELP1‑120}; also: recombinant VIP-ELP fusion)
activity compared with native VIP protein for VPAC2 receptor (cAMP produced) [2]: somewhat more active than native VIP protein | receptor selectivity VPAC2 over VPAC1 ([2]; comparison of FIG. 8 and FIG. 9): selectively activates VPAC2 receptor over VPAC1 receptor

fold less activity than the native VIP peptide for VPAC2 ([2]; FIG. 13): ~1.5 fold | fold less active than the native VIP peptide on the VPAC1 receptor [3]: approximately 1.4 fold
B1: PB1120: VIP-ELP1-120 fusion peptide encoded by pPB1120 (protein)
chain: HSDAVFTDNYTRLRKQMAVKKYLNSILNVPGVGVPGVGVPGGGVPGAGVPGVGVPGVGVPGVGVPGGGVPGAGVPGGGVPGVGVPGVGVPGGGVPGAGVPGVGVPGVGVPGVGVPGGGVPGAGVPGGGVPGVGVPGVGVPGGGVPGAGVPGVGVPGVGVPGVGVPGGGVPGAGVPGGGVPGVGVPGVGVPGGGVPGAGVPGVGVPGVGVPGVGVPGGGVPGAGVPGGGVPGVGVPGVGVPGGGVPGAGVPGVGVPGVGVPGVGVPGGGVPGAGVPGGGVPGVGVPGVGVPGGGVPGAGVPGVGVPGVGVPGVGVPGGGVPGAGVPGGGVPGVGVPGVGVPGGGVPGAGVPGVGVPGVGVPGVGVPGGGVPGAGVPGGGVPGVGVPGVGVPGGGVPGAGVPGVGVPGVGVPGVGVPGGGVPGAGVPGGGVPGVGVPGVGVPGGGVPGAGVPGVGVPGVGVPGVGVPGGGVPGAGVPGGGVPGVGVPGVGVPGGGVPGAGVPGVGVPGVGVPGVGVPGGGVPGAGVPGGGVPGVGVPGVGVPGGGVPGAGVPGVGVPGVGVPGVGVPGGGVPGAGVPGGGVPGVGVPGVGVPGGGVPGAGVPGVGVPGVGVPGVGVPGGGVPGAGVPGGGVPGWP
modifications: VIP ELP1-120
notes: VIP-ELP1-120 fusion peptide encoded by pPB1120
portion of initial dose remaining in the circulation [5]: More than half | diastolic pressure (rats; 1 mg/kg SC): significant reductions | mean arterial pressure (rats; 1 mg/kg SC): significant reductions | systolic pressure (rats; 1 mg/kg SC): significant reductions | diastolic pressure (rats; 5 mg/kg SC): significant reductions | mean arterial pressure (rats; 5 mg/kg SC): significant reductions | systolic pressure (rats; 5 mg/kg SC): significant reductions
